{"source": "patent US20100222280A1", "about": "(PROYECTO DE BIOMEDICINA CIMA S L, published 2010)", "binders": {"B1": {"name": "truncated peptide SEQ ID NO: 27 (T4) (peptide)", "peptide": "IWFIPRSSWYE"}, "B2": {"name": "truncated peptide SEQ ID NO: 31 (T8) (peptide)", "peptide": "IPRSSWYERA"}, "B3": {"name": "truncated peptide SEQ ID NO: 29 (T6) (peptide)", "peptide": "WFIPRSSWYERA"}, "B4": {"name": "truncated peptide SEQ ID NO: 36 (T13) (peptide)", "peptide": "KRIWFIPRS"}, "B5": {"name": "truncated peptide SEQ ID NO: 24 (T1) (peptide)", "peptide": "RIWFIPRSSWYERA"}, "B6": {"name": "truncated peptide SEQ ID NO: 33 (T10) (peptide)", "peptide": "KRIWFIPRSSWYER"}, "B7": {"name": "truncated peptide SEQ ID NO: 26 (T3) (peptide)", "peptide": "IWFIPRSSWYERA"}, "B8": {"name": "truncated peptide SEQ ID NO: 30 (T7) (peptide)", "peptide": "FIPRSSWYERA"}, "B9": {"name": "truncated peptide SEQ ID NO: 35 (T12) (peptide)", "peptide": "KRIWFIPRSS"}, "B10": {"name": "truncated peptide SEQ ID NO: 34 (T11) (peptide)", "peptide": "KRIWFIPRSSWY"}, "B11": {"name": "truncated peptide SEQ ID NO: 25 (T2) (peptide)", "peptide": "RIWFIPRSSWYER"}, "B12": {"name": "truncated peptide SEQ ID NO: 32 (T9) (peptide)", "peptide": "PRSSWYERA"}, "B13": {"name": "truncated peptide SEQ ID NO: 28 (T5) (peptide)", "peptide": "WFIPRSSWY"}, "B14": {"name": "TGF-β1 inhibitor peptide P17 (SEQ ID NO: 17) (peptide)", "peptide": "KRIWFIPRSSWYERA", "notes": "15-aa peptide"}, "B15": {"name": "peptide identified by SEQ ID NO: 1 (peptide)", "peptide": "DRRIFWWSLRSAPGA", "notes": "15-aa peptide"}, "B16": {"name": "peptide identified by SEQ ID NO: 2 (peptide)", "peptide": "DRRIFWWSNRSAPGA", "notes": "15-aa peptide"}, "B17": {"name": "peptide identified by SEQ ID NO: 14 (peptide)", "peptide": "SGRRHLHRHHIFSLP", "notes": "15-aa peptide"}, "B18": {"name": "peptide identified by SEQ ID NO: 15 (peptide)", "peptide": "GWITFHRRHHDRVLS", "notes": "15-aa peptide"}, "B19": {"name": "peptide identified by SEQ ID NO: 21 (peptide)", "peptide": "HVRLHHYLRHRSLPN", "notes": "15-aa peptide"}, "B20": {"name": "peptide identified by SEQ ID NO: 11 (peptide)", "peptide": "WHKYFLRRPLSVRTR", "notes": "15-aa peptide"}, "B21": {"name": "peptide identified by SEQ ID NO: 6 (peptide)", "peptide": "PPYHRFWRGHRHAVQ", "notes": "15-aa peptide"}, "B22": {"name": "peptide identified by SEQ ID NO: 7 (peptide)", "peptide": "HRISHFAHRYLARLH", "notes": "15-aa peptide"}, "B23": {"name": "peptide identified by SEQ ID NO: 19 (peptide)", "peptide": "RHLSHFKWLRSHGLD", "notes": "15-aa peptide"}, "B24": {"name": "peptide identified by SEQ ID NO: 5 (peptide)", "peptide": "RRWVRYPVHLHSPIV", "notes": "15-aa peptide"}, "B25": {"name": "peptide identified by SEQ ID NO: 4 (peptide)", "peptide": "RLAHSHRHRSHVALT", "notes": "15-aa peptide"}, "B26": {"name": "peptide identified by SEQ ID NO: 13 (peptide)", "peptide": "RKWFLQHRRMPVSVL", "notes": "15-aa peptide"}, "B27": {"name": "peptide identified by SEQ ID NO: 12 (peptide)", "peptide": "WHKYFLRRPLSVGLG", "notes": "15-aa peptide"}, "B28": {"name": "peptide identified by SEQ ID NO: 16 (peptide)", "peptide": "RLHGHRSHRFTHVAQ", "notes": "15-aa peptide"}, "B29": {"name": "peptide identified by SEQ ID NO: 20 (peptide)", "peptide": "RRFHFHSRMVAVDNS", "notes": "15-aa peptide"}, "B30": {"name": "peptide identified by SEQ ID NO: 3 (peptide)", "peptide": "RFFTRFPWHYHASRL", "notes": "15-aa peptide"}, "B31": {"name": "peptide identified by SEQ ID NO: 18 (peptide)", "peptide": "MPLSRYWWLFSHRPR", "notes": "15-aa peptide"}, "B32": {"name": "peptide identified by SEQ ID NO: 22 (peptide)", "peptide": "VPMALNHGVYVMVSS", "notes": "15-aa peptide"}, "B33": {"name": "peptide identified by SEQ ID NO: 9 (peptide)", "peptide": "GWHSLLHSRYHRLAA", "notes": "15-aa peptide"}, "B34": {"name": "peptide identified by SEQ ID NO: 8 (peptide)", "peptide": "WHWRHRIPLQLAAGR", "notes": "15-aa peptide"}, "B35": {"name": "peptide identified by SEQ ID NO: 10 (peptide)", "peptide": "FVWVRFHRLPRQIYT", "notes": "15-aa peptide"}, "B36": {"name": "peptide identified as P144 in the Spanish patent application ES 2146552 A1 (SEQ ID NO: 51) (peptide)", "peptide": "TSLDASIIWAMMQN"}}}
{"molecular_target": "TGF-β1 (Roche)", "sequence (P01137 279-390)": "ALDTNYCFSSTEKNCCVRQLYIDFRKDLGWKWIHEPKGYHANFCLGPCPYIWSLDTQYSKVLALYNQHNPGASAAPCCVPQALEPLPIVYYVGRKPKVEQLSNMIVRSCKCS", "experiment": "cell-based or functional assay", "units": {"% Inhibition (Mv-1-Lu cell line growth reestablishment)": "%"}}
{"binder": "B1", "% Inhibition (Mv-1-Lu cell line growth reestablishment)": 1.4}
{"binder": "B2", "% Inhibition (Mv-1-Lu cell line growth reestablishment)": 3.4}
{"binder": "B3", "% Inhibition (Mv-1-Lu cell line growth reestablishment)": 2.7}
{"binder": "B4", "% Inhibition (Mv-1-Lu cell line growth reestablishment)": 6.2}
{"binder": "B5", "% Inhibition (Mv-1-Lu cell line growth reestablishment)": 9.4}
{"binder": "B6", "% Inhibition (Mv-1-Lu cell line growth reestablishment)": 31.4}
{"binder": "B7", "% Inhibition (Mv-1-Lu cell line growth reestablishment)": 4.5}
{"binder": "B8", "% Inhibition (Mv-1-Lu cell line growth reestablishment)": -0.3}
{"binder": "B9", "% Inhibition (Mv-1-Lu cell line growth reestablishment)": 6}
{"binder": "B10", "% Inhibition (Mv-1-Lu cell line growth reestablishment)": 34.4}
{"binder": "B11", "% Inhibition (Mv-1-Lu cell line growth reestablishment)": 6.2}
{"binder": "B12", "% Inhibition (Mv-1-Lu cell line growth reestablishment)": 3.8}
{"binder": "B13", "% Inhibition (Mv-1-Lu cell line growth reestablishment)": 3.1}
{"binder": "B14", "% Inhibition (Mv-1-Lu cell line growth reestablishment)": 28.5}
{"molecular_target": "biotinylated TGF-β1 (Homo sapiens (Human), UniProt P01137 279-390, Biotinylated (site or sites not stated) for capture on streptavidin plates. The active cytokine is a disulfide-linked 25 kDa homodimer; one subunit is given.)", "sequence (P01137 279-390 limits assumed, form in doubt)": "as the sequence (P01137 279-390) above", "experiment": "phage display biopanning on biotinylated TGF-β1 on streptavidin plates; clones among 108 colonies after 3 cycles", "units": {"No. colonies": "colonies"}}
{"binder": "B15", "No. colonies": 6}
{"binder": "B16", "No. colonies": 1}
{"binder": "B17", "No. colonies": 2}
{"binder": "B18", "No. colonies": 1}
{"binder": "B19", "No. colonies": 1}
{"binder": "B20", "No. colonies": 4}
{"binder": "B21", "No. colonies": 12}
{"binder": "B22", "No. colonies": 2}
{"binder": "B23", "No. colonies": 1}
{"binder": "B24", "No. colonies": 1}
{"binder": "B25", "No. colonies": 18}
{"binder": "B26", "No. colonies": 6}
{"binder": "B27", "No. colonies": 1}
{"binder": "B28", "No. colonies": 1}
{"binder": "B29", "No. colonies": 1}
{"binder": "B30", "No. colonies": 41}
{"binder": "B31", "No. colonies": 1}
{"binder": "B32", "No. colonies": 1}
{"binder": "B33", "No. colonies": 1}
{"binder": "B34", "No. colonies": 2}
{"binder": "B35", "No. colonies": 1}
{"binder": "B14", "No. colonies": 3}
{"molecular_target": "TGF-β1 (Roche)", "experiment": "cell-based or functional assay", "remark": "another data set of the same source", "units": {"% Inhibition (Mv-1-Lu cell line growth reestablishment, 3H-thymidine)": "%"}}
{"binder": "B15", "% Inhibition (Mv-1-Lu cell line growth reestablishment, 3H-thymidine)": 3.33}
{"binder": "B16", "% Inhibition (Mv-1-Lu cell line growth reestablishment, 3H-thymidine)": -0.96}
{"binder": "B17", "% Inhibition (Mv-1-Lu cell line growth reestablishment, 3H-thymidine)": 3.62}
{"binder": "B18", "% Inhibition (Mv-1-Lu cell line growth reestablishment, 3H-thymidine)": 13.4}
{"binder": "B36", "% Inhibition (Mv-1-Lu cell line growth reestablishment, 3H-thymidine)": 7.26}
{"binder": "B19", "% Inhibition (Mv-1-Lu cell line growth reestablishment, 3H-thymidine)": 13.4}
{"binder": "B20", "% Inhibition (Mv-1-Lu cell line growth reestablishment, 3H-thymidine)": 27.4}
{"binder": "B21", "% Inhibition (Mv-1-Lu cell line growth reestablishment, 3H-thymidine)": 12.8}
{"binder": "B22", "% Inhibition (Mv-1-Lu cell line growth reestablishment, 3H-thymidine)": -25}
{"binder": "B23", "% Inhibition (Mv-1-Lu cell line growth reestablishment, 3H-thymidine)": 9.71}
{"binder": "B24", "% Inhibition (Mv-1-Lu cell line growth reestablishment, 3H-thymidine)": 15.8}
{"binder": "B25", "% Inhibition (Mv-1-Lu cell line growth reestablishment, 3H-thymidine)": 5.53}
{"binder": "B26", "% Inhibition (Mv-1-Lu cell line growth reestablishment, 3H-thymidine)": 18}
{"binder": "B27", "% Inhibition (Mv-1-Lu cell line growth reestablishment, 3H-thymidine)": 10.7}
{"binder": "B28", "% Inhibition (Mv-1-Lu cell line growth reestablishment, 3H-thymidine)": 9.47}
{"binder": "B29", "% Inhibition (Mv-1-Lu cell line growth reestablishment, 3H-thymidine)": 6.16}
{"binder": "B30", "% Inhibition (Mv-1-Lu cell line growth reestablishment, 3H-thymidine)": 25.4}
{"binder": "B31", "% Inhibition (Mv-1-Lu cell line growth reestablishment, 3H-thymidine)": 21.3}
{"binder": "B32", "% Inhibition (Mv-1-Lu cell line growth reestablishment, 3H-thymidine)": 4.13}
{"binder": "B33", "% Inhibition (Mv-1-Lu cell line growth reestablishment, 3H-thymidine)": 4.98}
{"binder": "B34", "% Inhibition (Mv-1-Lu cell line growth reestablishment, 3H-thymidine)": 15.7}
{"binder": "B35", "% Inhibition (Mv-1-Lu cell line growth reestablishment, 3H-thymidine)": -4.58}
{"binder": "B14", "% Inhibition (Mv-1-Lu cell line growth reestablishment, 3H-thymidine)": 38.9}
{"molecular_target": "TGF-β1 raised in mice by acute liver damage (CCl4) (mouse, UniProt P04202 279-390, limits assumed)", "sequence (P04202 279-390 limits assumed)": "as the sequence (P01137 279-390) above, with A75S counted along it", "experiment": "cell-based or functional assay", "units": {"% Inhibition (type I collagen mRNA induction, acute liver damage model in mice)": "%"}}
{"binder": "B15", "% Inhibition (type I collagen mRNA induction, acute liver damage model in mice)": 0.69}
{"binder": "B16", "% Inhibition (type I collagen mRNA induction, acute liver damage model in mice)": 36.6}
{"binder": "B17", "% Inhibition (type I collagen mRNA induction, acute liver damage model in mice)": 49.8}
{"binder": "B18", "% Inhibition (type I collagen mRNA induction, acute liver damage model in mice)": 14.3}
{"binder": "B36", "% Inhibition (type I collagen mRNA induction, acute liver damage model in mice)": -3.51}
{"binder": "B20", "% Inhibition (type I collagen mRNA induction, acute liver damage model in mice)": 39.3}
{"binder": "B21", "% Inhibition (type I collagen mRNA induction, acute liver damage model in mice)": 74.9}
{"binder": "B23", "% Inhibition (type I collagen mRNA induction, acute liver damage model in mice)": 12.1}
{"binder": "B25", "% Inhibition (type I collagen mRNA induction, acute liver damage model in mice)": 51.3}
{"binder": "B26", "% Inhibition (type I collagen mRNA induction, acute liver damage model in mice)": 32.7}
{"binder": "B29", "% Inhibition (type I collagen mRNA induction, acute liver damage model in mice)": 1.41}
{"binder": "B30", "% Inhibition (type I collagen mRNA induction, acute liver damage model in mice)": 2.09}
{"binder": "B33", "% Inhibition (type I collagen mRNA induction, acute liver damage model in mice)": 26.6}
{"binder": "B14", "% Inhibition (type I collagen mRNA induction, acute liver damage model in mice)": 93.1}
